± gives the uncertainty stated by the source.
Assay: self-splicing fitness, log relative to wild type (ln ratio); higher = more splicing; Tetrahymena group I intron in knt gene, E. coli kanamycin selection, DiMSum; sequences stand for … in CUCUCU…GGAGGGAAAAGUUAUCAGGCAUGCACCUGGUAGCUAGUCUUUAAACCAAUAGAUUGCAUCGGUUUAAAAGGCAAGACCGUCAAAUUGCGGGAAAGGGGUCAACAGCCGUUCAGUACCAAGUCUCAGGGGAAACUUUGAGAUGGCCUUGCAAAGGGUAUGGUAAUAAGCUGACGGACAUGGUCCUAACCACGCAGCCAAGUCCUAAGUCAACAGAUCUUCUGUUGAUAUGGAUGCAGUUCACAGACUAAAUGUCGGUCGGGGAAGAUGUAUUCUUCUCAUAAGAUAUAGUCGGACCUCUCCUUAAUGGGAGCUAGCGGAUGAAGUGAUGCAACACUGGAGCCGCUGGGAACUAAUUUGUAUGCGAAAGUAUAUUGAUUAGUUUUGGAGUACUCGUGGUCG
Summary of the method: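 The eight P1ex-region nucleotides of an intron in the knt kanamycin-resistance gene on pET-22b(+) were all randomised and the library put into E. coli BL21(DE3). Six replicate transformations were grown overnight at 37°C or 30°C on LB agar with or without 25 μg/mL kanamycin, together with 100 μg/mL carbenicillin, 50 μM IPTG and 0.2% rhamnose. Colonies were pooled and amplicon-sequenced on an Illumina HiSeq 2500. Fitness from DiMSum is the error-weighted combination of wild-type-normalised replicate fold changes, kanamycin over none.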

With CCUCAGCAAUAUUACGCGUC the “self-splicing fitness (ln)” value (30 °C) was -4.16 ± 0.46 and the “self-splicing fitness (ln)” value (37 °C) was -2.18 ± 0.34.

In the case of CCUCAGCAAUAUUACGCUCU, the “self-splicing fitness (ln)” value (30 °C) is reported as -4.29 ± 0.43.

In the case of CCUCAGCAAUAUUACGGACC, the “self-splicing fitness (ln)” value (37 °C) is reported as -3.01 ± 0.31.

In the case of CCUCAGCAAUAUUACGGCCC, the “self-splicing fitness (ln)” value (30 °C) is reported as -4.21 ± 0.39.

With CCUCAGCAAUAUUACGGGGA the “self-splicing fitness (ln)” value (30 °C) was -3.03 ± 0.14 and the “self-splicing fitness (ln)” value (37 °C) was -2.1 ± 0.15.

In the case of CCUCAGCAAUAUUACGGUCC, the “self-splicing fitness (ln)” value (30 °C) is reported as -4.07 ± 0.36.

For CCUCAGCAAUAUUACGUACG, the “self-splicing fitness (ln)” value (30 °C) was -1.32 ± 0.069 and the “self-splicing fitness (ln)” value (37 °C) was -0.131 ± 0.084.

In the case of CCUCAGCAAUAUUACGUCCG, the “self-splicing fitness (ln)” value (30 °C) is reported as -1.86 ± 0.072 and the “self-splicing fitness (ln)” value (37 °C) is reported as -0.0776 ± 0.11.

For CCUCAGCAAUAUUACGUCGA, the “self-splicing fitness (ln)” value (30 °C) was -3.67 ± 0.27 and the “self-splicing fitness (ln)” value (37 °C) was -2.28 ± 0.2.

With CCUCAGCAAUAUUACGUCGC the “self-splicing fitness (ln)” value (37 °C) was -3.77 ± 0.36.

With CCUCAGCAAUAUUACGUGUA the “self-splicing fitness (ln)” value (30 °C) was -2.19 ± 0.13 and the “self-splicing fitness (ln)” value (37 °C) was -2.16 ± 0.15.

With CCUCAGCAAUAUUACGUUAC the “self-splicing fitness (ln)” value (30 °C) was -3.54 ± 0.19 and the “self-splicing fitness (ln)” value (37 °C) was -3.7 ± 0.36.

With CCUCAGCAAUAUUACGUUAG the “self-splicing fitness (ln)” value (30 °C) was -3.27 ± 0.15 and the “self-splicing fitness (ln)” value (37 °C) was -2.14 ± 0.14.

For CCUCAGCAAUAUUACGUUUC, the “self-splicing fitness (ln)” value (30 °C) was -3.04 ± 0.17 and the “self-splicing fitness (ln)” value (37 °C) was -2.44 ± 0.2.

With CCUGAGCAAUAUUACGAAGU the “self-splicing fitness (ln)” value (37 °C) was -0.825 ± 0.19.

For CCUGAGCAAUAUUACGACGA, the “self-splicing fitness (ln)” value (30 °C) was -2.99 ± 0.24 and the “self-splicing fitness (ln)” value (37 °C) was -1.61 ± 0.17.

In the case of CCUGAGCAAUAUUACGAUAU, the “self-splicing fitness (ln)” value (30 °C) is reported as -4.45 ± 0.37 and the “self-splicing fitness (ln)” value (37 °C) is reported as -2.39 ± 0.23.

For CCUGAGCAAUAUUACGCAAG, the “self-splicing fitness (ln)” value (30 °C) was -3.97 ± 0.24 and the “self-splicing fitness (ln)” value (37 °C) was -2.49 ± 0.19.

For CCUGAGCAAUAUUACGCUAU, the “self-splicing fitness (ln)” value (30 °C) was -3.66 ± 0.2 and the “self-splicing fitness (ln)” value (37 °C) was -3.09 ± 0.19.

In the case of CCUGAGCAAUAUUACGCUCA, the “self-splicing fitness (ln)” value (30 °C) is reported as -1.37 ± 0.28 and the “self-splicing fitness (ln)” value (37 °C) is reported as -1.94 ± 0.38.

In the case of CCUGAGCAAUAUUACGCUGC, the “self-splicing fitness (ln)” value (30 °C) is reported as -4.04 ± 0.37 and the “self-splicing fitness (ln)” value (37 °C) is reported as -2.34 ± 0.22.

With CCUGAGCAAUAUUACGGAGA the “self-splicing fitness (ln)” value (30 °C) was -2.39 ± 0.25 and the “self-splicing fitness (ln)” value (37 °C) was -3.09 ± 0.35.

With CCUGAGCAAUAUUACGGCAU the “self-splicing fitness (ln)” value (30 °C) was -3.93 ± 0.23 and the “self-splicing fitness (ln)” value (37 °C) was -4.08 ± 0.42.

With CCUGAGCAAUAUUACGGUUU the “self-splicing fitness (ln)” value (30 °C) was -3.26 ± 0.2 and the “self-splicing fitness (ln)” value (37 °C) was -2.38 ± 0.19.

In the case of CCUGAGCAAUAUUACGUACG, the “self-splicing fitness (ln)” value (30 °C) is reported as -2.08 ± 0.2 and the “self-splicing fitness (ln)” value (37 °C) is reported as -1.24 ± 0.22.

With CCUGAGCAAUAUUACGUACU the “self-splicing fitness (ln)” value (30 °C) was -2.04 ± 0.21 and the “self-splicing fitness (ln)” value (37 °C) was -2.3 ± 0.3.

For CCUGAGCAAUAUUACGUCCG, the “self-splicing fitness (ln)” value (30 °C) was -3.25 ± 0.24 and the “self-splicing fitness (ln)” value (37 °C) was -1.93 ± 0.33.

In the case of CCUGAGCAAUAUUACGUCGA, the “self-splicing fitness (ln)” value (30 °C) is reported as -3.41 ± 0.42 and the “self-splicing fitness (ln)” value (37 °C) is reported as -3.34 ± 0.33.

For CCUGAGCAAUAUUACGUGUG, the “self-splicing fitness (ln)” value (30 °C) was -1.62 ± 0.058 and the “self-splicing fitness (ln)” value (37 °C) was -1.18 ± 0.066.

For CCUUAGCAAUAUUACGAAUG, the “self-splicing fitness (ln)” value (30 °C) was -1.27 ± 0.11 and the “self-splicing fitness (ln)” value (37 °C) was -0.423 ± 0.1.

With CCUUAGCAAUAUUACGAUUG the “self-splicing fitness (ln)” value (30 °C) was -1.85 ± 0.098 and the “self-splicing fitness (ln)” value (37 °C) was -0.965 ± 0.1.

With CCUUAGCAAUAUUACGCAUU the “self-splicing fitness (ln)” value (30 °C) was -4.02 ± 0.46.

With CCUUAGCAAUAUUACGCCAG the “self-splicing fitness (ln)” value (37 °C) was -2.05 ± 0.45.

With CCUUAGCAAUAUUACGCCGA the “self-splicing fitness (ln)” value (30 °C) was -2.16 ± 0.35 and the “self-splicing fitness (ln)” value (37 °C) was -1.98 ± 0.46.

With CCUUAGCAAUAUUACGCGCG the “self-splicing fitness (ln)” value (30 °C) was -2.71 ± 0.39 and the “self-splicing fitness (ln)” value (37 °C) was -3.39 ± 0.42.

In the case of CCUUAGCAAUAUUACGCGUU, the “self-splicing fitness (ln)” value (30 °C) is reported as -3.55 ± 0.21 and the “self-splicing fitness (ln)” value (37 °C) is reported as -2.12 ± 0.16.

In the case of CCUUAGCAAUAUUACGCUGC, the “self-splicing fitness (ln)” value (30 °C) is reported as -2.81 ± 0.28.

For CCUUAGCAAUAUUACGCUUG, the “self-splicing fitness (ln)” value (30 °C) was -3.86 ± 0.3 and the “self-splicing fitness (ln)” value (37 °C) was -3.5 ± 0.37.

With CCUUAGCAAUAUUACGGAGG the “self-splicing fitness (ln)” value (30 °C) was -3.99 ± 0.41 and the “self-splicing fitness (ln)” value (37 °C) was -3.11 ± 0.37.

With CCUUAGCAAUAUUACGGAGU the “self-splicing fitness (ln)” value (30 °C) was -3.24 ± 0.21 and the “self-splicing fitness (ln)” value (37 °C) was -2.78 ± 0.19.

For CCUUAGCAAUAUUACGGCUG, the “self-splicing fitness (ln)” value (30 °C) was -3.9 ± 0.19 and the “self-splicing fitness (ln)” value (37 °C) was -2.39 ± 0.17.

For CCUUAGCAAUAUUACGGGCA, the “self-splicing fitness (ln)” value (30 °C) was -3.91 ± 0.33 and the “self-splicing fitness (ln)” value (37 °C) was -3.36 ± 0.35.

For CCUUAGCAAUAUUACGGGCG, the “self-splicing fitness (ln)” value (30 °C) was -1.64 ± 0.083 and the “self-splicing fitness (ln)” value (37 °C) was -0.95 ± 0.093.

In the case of CCUUAGCAAUAUUACGGUAA, the “self-splicing fitness (ln)” value (30 °C) is reported as -2.78 ± 0.27 and the “self-splicing fitness (ln)” value (37 °C) is reported as -2.59 ± 0.35.

In the case of CCUUAGCAAUAUUACGGUCU, the “self-splicing fitness (ln)” value (30 °C) is reported as -3.95 ± 0.25 and the “self-splicing fitness (ln)” value (37 °C) is reported as -3.77 ± 0.46.
